Laboratory results as given in paper PMC3410656 (Nature structural & molecular biology, 2011).

Molecular target: blocked SNARE[change] (SNARE[change] with CPXcen residues 48-134 pre-bound) ( | rat | human, UniProt P63027;P32851;P60880-2;O14810)
Experiment: ITC

B1: wild-type complexin fragment wtCPX (hCPX1 residues 26-83) (domain or fragment)
chain: KDPDAAKKEEERQEALRQAEEERKAKYAKMEAEREAVRQGIRDKYGIKKKEEREAEAQ
Kd: ~10 µM
